Substrate in data set [1]: NC(=O)c1ccc[n+]([C@@H]2O[C@H](COP(=O)([O-])OP(=O)(O)OC[C@H]3O[C@@H](n4cnc5c(N)ncnc54)[C@H](O)[C@@H]3O)[C@@H](O)[C@H]2O)c1
Briefly: NAD(P)ase activity by HPLC (kinetics, substrates, metal ions). The data set is classed as biochemical, human. As to conditions: other: hSARM1 full length.

Substrate in data set [2]: NC(=O)c1ccc[n+]([C@@H]2O[C@H](COP(=O)([O-])OP(=O)(O)OC[C@H]3O[C@@H](n4cnc5c(N)ncnc54)[C@H](O)[C@@H]3O)[C@@H](O)[C@H]2O)c1
Briefly: purified protein, by the assay type. The data set is classed as biochemical. As to conditions: other: hSARM1 SAM-TIR, pH 7.5.

Substrate in data set [3]: NC(=O)c1ccc[n+]([C@@H]2O[C@H](COP(=O)([O-])OP(=O)(O)OC[C@H]3O[C@@H](n4cnc5c(N)ncnc54)[C@H](O)[C@@H]3O)[C@@H](O)[C@H]2O)c1
Briefly: purified protein, by the assay type. As to conditions: other: Aplysia cyclase, substrate as labelled, pH 7.5.

Setting [4] is: re-elaborated from Table 1, pH 7.5.

The Km is the substrate concentration at which the rate is half of its maximum. Usually Vmax stands for the rate approached at saturating substrate. Broadly, the kcat is the number of substrate molecules converted per active site and unit of time at saturation. The term kcat/Km denotes the turnover number divided by the Michaelis constant.

B1: human SARM1 full length (Homo sapiens) (protein)
chain: LAVPGPDGGGGTGPWWAAGGRGPREVSPGAGTEVQDALERALPELQQALSALKQAGGARAVGAGLAEVFQLVEEAWLLPAVGREVAQGLCDAIRLDGGLDLLLRLLQAPELETRVQAARLLEQILVAENRDRVARIGLGVILNLAKEREPVELARSVAGILEHMFKHSEETCQRLVAAGGLDAVLYWCRRTDPALLRHCALALGNCALHGGQAVQRRMVEKRAAEWLFPLAFSKEDELLRLHACLAVAVLATNKEVEREVERSGTLALVEPLVASLDPGRFARCLVDASDTSQGRGPDDLQRLVPLLDSNRLEAQCIGAFYLCAEAAIKSLQGKTKVFSDIGAIQSLKRLVSYSTNGTKSALAKRALRLLGEEVPRPILPSVPSWKEAEVQTWLQQIGFSKYCESFREQQVDGDLLLRLTEEELQTDLGMKSGITRKRFFRELTELKTFANYSTCDRSNLADWLGSLDPRFRQYTYGLVSCGLDRSLLHRVSEQQLLEDCGIHLGVHRARILTAAREMLHSPLPCTGGKPSGDTPDVFISYRRNSGSQLASLLKVHLQLHGFSVFIDVEKLEAGKFEDKLIQSVMGARNFVLVLSPGALDKCMQDHDCKDWVHKEIVTALSCGKNIVPIIDGFEWPEPQVLPEDMQAVLTFNGIKWSHEYQEATIEKIIRFLQGRSSRDSSAGSDTSLEGAAPMGPT
notes: Human recombinant SARM1 full length proteins (wild-type and E642A mutant); made in house
As to B1, in data set [1] (no NMN, pH 7.5), the Michaelis constant (Km) was found to be 30.3 ± 5.18 µM and the Vmax came to 0.0224 µmol/min/mg. For the same protein, in data set [1] (setting [4]), the kcat was found to be 0.03 ± 0.007 s⁻¹ and the kcat/Km turned out to be 1000 ± 350 M⁻¹ s⁻¹.

B2: hSARM1 SAM-TIR (Homo sapiens) (protein)
chain: VPSWKEAEVQTWLQQIGFSKYCESFREQQVDGDLLLRLTEEELQTDLGMKSGITRKRFFRELTELKTFANYSTCDRSNLADWLGSLDPRFRQYTYGLVSCGLDRSLLHRVSEQQLLEDCGIHLGVHRARILTAAREMLHSPLPCTGGKPSGDTPDVFISYRRNSGSQLASLLKVHLQLHGFSVFIDVEKLEAGKFEDKLIQSVMGARNFVLVLSPGALDKCMQDHDCKDWVHKEIVTALSCGKNIVPIIDGFEWPEPQVLPEDMQAVLTFNGIKWSHEYQEATIEKIIRFLQGRSSRDSSAGSDTSLEGAAPMGPT
notes: made in house
B2: in data set [2], the Km was determined as 69.5 ± 2.31 µM, the Vmax turned out to be 0.723 µmol/min/mg, the kcat turned out to be 0.448 ± 0.009 s⁻¹ and the catalytic efficiency (kcat/Km) came to 6500 ± 350 M⁻¹ s⁻¹.

B3: Aplysia californica ADP ribosyl cyclase (Aplysia californica) (protein)
chain: IVPTRELENVFLGRCKDYEITRYLDILPRVRSDCSALWKDFFKAFSFKNPCDLDLGSYKDFFTSAQQQLPKNKVMFWSGVYDEAHDYANTGRKYITLEDTLPGYMLNSLVWCGQRANPGFNEKVCPDFKTCPVQARESFWGMASSSYAHSAEGEVTYMVDGSNPKVPAYRPDSFFGKYELPNLTNKVTRVKVIVLHRLGEKIIEKCGAGSLLDLEKLVKAKHFAFDCVENPRAVLFLLCSDNPNARECRLAKRFYRIA
B3: in data set [3], the Km worked out at 212 ± 13.7 µM and the Vmax was determined as 51.4 ± 1.24 µmol/min/mg.

The values above are taken from PMC8844822, “SARM1 is a multi-functional NAD(P)ase with prominent base exchange activity, all regulated bymultiple physiologically relevant NAD metabolites” (iScience, 2022).
